Numbered stars: 1 amine (or outer) side, 2 acyl side, 3 side chain; on linkers, the order of the positions; unused ones are H or OH. Bridge positions count the residues as written; N and C are the ends. Side chains are listed from the residue outwards. Ends that are not written are not given here. * marks the point of attachment. C20 diacid = O=C(O)CCCCCCCCCCCCCCCCCCC(=O)*; C18 diacid = O=C(O)CCCCCCCCCCCCCCCCC(=O)*; C16 diacid = O=C(O)CCCCCCCCCCCCCCC(=O)*; γGlu = O=C(O)[C@H](CCC(=O)[*:2])N[*:1]; C14 diacid = O=C(O)CCCCCCCCCCCCC(=O)*
T1: human calcitonin receptor (human, UniProt P30988 25-474)
T1 sequence (looked up): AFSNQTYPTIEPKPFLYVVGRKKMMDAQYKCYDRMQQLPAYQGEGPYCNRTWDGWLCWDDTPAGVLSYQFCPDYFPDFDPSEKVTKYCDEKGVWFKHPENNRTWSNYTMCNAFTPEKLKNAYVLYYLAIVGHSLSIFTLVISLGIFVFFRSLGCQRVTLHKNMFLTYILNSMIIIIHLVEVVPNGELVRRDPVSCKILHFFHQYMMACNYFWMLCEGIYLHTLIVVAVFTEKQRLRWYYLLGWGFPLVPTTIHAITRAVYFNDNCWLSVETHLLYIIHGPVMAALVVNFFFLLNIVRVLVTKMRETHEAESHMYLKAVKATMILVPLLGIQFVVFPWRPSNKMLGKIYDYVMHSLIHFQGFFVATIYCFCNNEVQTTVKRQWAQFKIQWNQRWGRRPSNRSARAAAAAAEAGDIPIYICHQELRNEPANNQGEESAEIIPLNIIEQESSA

B1: N^ε1-[(4S)-4-carboxy-4-(13-carboxytridecanoylamino)butanoyl]-[Arg17,Pro21,Pro27,His34]-h-amylin (peptide)
peptide: K([γGlu-C14 diacid])CNTATCATQRLANFLRHSSPNFGAIPSSTNVGHNTY-NH2
modifications: disulfide 2-7; N-terminus assumed
SMILES: CC[C@H](C)[C@H](NC(=O)[C@H](C)NC(=O)CNC(=O)[C@H](Cc1ccccc1)NC(=O)[C@H](CC(N)=O)NC(=O)[C@@H]1CCCN1C(=O)[C@H](CO)NC(=O)[C@H](CO)NC(=O)[C@H](Cc1c[nH]cn1)NC(=O)[C@H](CCCNC(=N)N)NC(=O)[C@H](CC(C)C)NC(=O)[C@H](Cc1ccccc1)NC(=O)[C@H](CC(N)=O)NC(=O)[C@H](C)NC(=O)[C@H](CC(C)C)NC(=O)[C@H](CCCNC(=N)N)NC(=O)[C@H](CCC(N)=O)NC(=O)[C@@H](NC(=O)[C@H](C)NC(=O)[C@@H]1CSSC[C@H](NC(=O)[C@@H](N)CCCCNC(=O)CC[C@H](NC(=O)CCCCCCCCCCCCC(=O)O)C(=O)O)C(=O)N[C@@H](CC(N)=O)C(=O)N[C@@H]([C@@H](C)O)C(=O)N[C@@H](C)C(=O)N[C@@H]([C@@H](C)O)C(=O)N1)[C@@H](C)O)C(=O)N1CCC[C@H]1C(=O)N[C@@H](CO)C(=O)N[C@@H](CO)C(=O)N[C@H](C(=O)N[C@@H](CC(N)=O)C(=O)N[C@H](C(=O)NCC(=O)N[C@@H](Cc1c[nH]cn1)C(=O)N[C@@H](CC(N)=O)C(=O)N[C@H](C(=O)N[C@@H](Cc1ccc(O)cc1)C(N)=O)[C@@H](C)O)C(C)C)[C@@H](C)O
notes: synthetic peptide amide
B2: N^ε1-[(4S)-4-carboxy-4-(15-carboxypentadecanoylamino)butanoyl]-[Arg17,Pro21,Pro27,His34]-h-amylin (peptide)
peptide: K([γGlu-C16 diacid])CNTATCATQRLANFLRHSSPNFGAIPSSTNVGHNTY-NH2
modifications: disulfide 2-7; N-terminus assumed
SMILES: CC[C@H](C)[C@H](NC(=O)[C@H](C)NC(=O)CNC(=O)[C@H](Cc1ccccc1)NC(=O)[C@H](CC(N)=O)NC(=O)[C@@H]1CCCN1C(=O)[C@H](CO)NC(=O)[C@H](CO)NC(=O)[C@H](Cc1c[nH]cn1)NC(=O)[C@H](CCCNC(=N)N)NC(=O)[C@H](CC(C)C)NC(=O)[C@H](Cc1ccccc1)NC(=O)[C@H](CC(N)=O)NC(=O)[C@H](C)NC(=O)[C@H](CC(C)C)NC(=O)[C@H](CCCNC(=N)N)NC(=O)[C@H](CCC(N)=O)NC(=O)[C@@H](NC(=O)[C@H](C)NC(=O)[C@@H]1CSSC[C@H](NC(=O)[C@@H](N)CCCCNC(=O)CC[C@H](NC(=O)CCCCCCCCCCCCCCC(=O)O)C(=O)O)C(=O)N[C@@H](CC(N)=O)C(=O)N[C@@H]([C@@H](C)O)C(=O)N[C@@H](C)C(=O)N[C@@H]([C@@H](C)O)C(=O)N1)[C@@H](C)O)C(=O)N1CCC[C@H]1C(=O)N[C@@H](CO)C(=O)N[C@@H](CO)C(=O)N[C@H](C(=O)N[C@@H](CC(N)=O)C(=O)N[C@H](C(=O)NCC(=O)N[C@@H](Cc1c[nH]cn1)C(=O)N[C@@H](CC(N)=O)C(=O)N[C@H](C(=O)N[C@@H](Cc1ccc(O)cc1)C(N)=O)[C@@H](C)O)C(C)C)[C@@H](C)O
notes: synthetic peptide amide
B3: N^ε1-[(4S)-4-carboxy-4-(17-carboxyheptadecanoylamino)butanoyl]-[Arg17,Pro21,Pro27,His34]-h-amylin (peptide)
peptide: K([γGlu-C18 diacid])CNTATCATQRLANFLRHSSPNFGAIPSSTNVGHNTY-NH2
modifications: disulfide 2-7; N-terminus assumed
SMILES: CC[C@H](C)[C@H](NC(=O)[C@H](C)NC(=O)CNC(=O)[C@H](Cc1ccccc1)NC(=O)[C@H](CC(N)=O)NC(=O)[C@@H]1CCCN1C(=O)[C@H](CO)NC(=O)[C@H](CO)NC(=O)[C@H](Cc1c[nH]cn1)NC(=O)[C@H](CCCNC(=N)N)NC(=O)[C@H](CC(C)C)NC(=O)[C@H](Cc1ccccc1)NC(=O)[C@H](CC(N)=O)NC(=O)[C@H](C)NC(=O)[C@H](CC(C)C)NC(=O)[C@H](CCCNC(=N)N)NC(=O)[C@H](CCC(N)=O)NC(=O)[C@@H](NC(=O)[C@H](C)NC(=O)[C@@H]1CSSC[C@H](NC(=O)[C@@H](N)CCCCNC(=O)CC[C@H](NC(=O)CCCCCCCCCCCCCCCCC(=O)O)C(=O)O)C(=O)N[C@@H](CC(N)=O)C(=O)N[C@@H]([C@@H](C)O)C(=O)N[C@@H](C)C(=O)N[C@@H]([C@@H](C)O)C(=O)N1)[C@@H](C)O)C(=O)N1CCC[C@H]1C(=O)N[C@@H](CO)C(=O)N[C@@H](CO)C(=O)N[C@H](C(=O)N[C@@H](CC(N)=O)C(=O)N[C@H](C(=O)NCC(=O)N[C@@H](Cc1c[nH]cn1)C(=O)N[C@@H](CC(N)=O)C(=O)N[C@H](C(=O)N[C@@H](Cc1ccc(O)cc1)C(N)=O)[C@@H](C)O)C(C)C)[C@@H](C)O
notes: synthetic peptide amide
B4: N^ε1-[(4S)-4-carboxy-4-(19-carboxynonadecanoylamino)butanoyl]-[Asp14,Arg17,Pro21,Pro27,Pro34,Arg35]-h-amylin (peptide)
peptide: K([γGlu-C20 diacid])CNTATCATQRLADFLRHSSPNFGAIPSSTNVGPRTY-NH2
modifications: disulfide 2-7; N-terminus assumed
SMILES: CC[C@H](C)[C@H](NC(=O)[C@H](C)NC(=O)CNC(=O)[C@H](Cc1ccccc1)NC(=O)[C@H](CC(N)=O)NC(=O)[C@@H]1CCCN1C(=O)[C@H](CO)NC(=O)[C@H](CO)NC(=O)[C@H](Cc1c[nH]cn1)NC(=O)[C@H](CCCNC(=N)N)NC(=O)[C@H](CC(C)C)NC(=O)[C@H](Cc1ccccc1)NC(=O)[C@H](CC(=O)O)NC(=O)[C@H](C)NC(=O)[C@H](CC(C)C)NC(=O)[C@H](CCCNC(=N)N)NC(=O)[C@H](CCC(N)=O)NC(=O)[C@@H](NC(=O)[C@H](C)NC(=O)[C@@H]1CSSC[C@H](NC(=O)[C@@H](N)CCCCNC(=O)CC[C@H](NC(=O)CCCCCCCCCCCCCCCCCCC(=O)O)C(=O)O)C(=O)N[C@@H](CC(N)=O)C(=O)N[C@@H]([C@@H](C)O)C(=O)N[C@@H](C)C(=O)N[C@@H]([C@@H](C)O)C(=O)N1)[C@@H](C)O)C(=O)N1CCC[C@H]1C(=O)N[C@@H](CO)C(=O)N[C@@H](CO)C(=O)N[C@H](C(=O)N[C@@H](CC(N)=O)C(=O)N[C@H](C(=O)NCC(=O)N1CCC[C@H]1C(=O)N[C@@H](CCCNC(=N)N)C(=O)N[C@H](C(=O)N[C@@H](Cc1ccc(O)cc1)C(N)=O)[C@@H](C)O)C(C)C)[C@@H](C)O
notes: synthetic peptide amide
B5: N^ε1-[(4S)-4-carboxy-4-(19-carboxynonadecanoylamino)butanoyl]-[Glu14,Arg17,Pro21,Pro27,Arg34,Glu35]-h-amylin (peptide)
peptide: K([γGlu-C20 diacid])CNTATCATQRLAEFLRHSSPNFGAIPSSTNVGRETY-NH2
modifications: disulfide 2-7; N-terminus assumed
SMILES: CC[C@H](C)[C@H](NC(=O)[C@H](C)NC(=O)CNC(=O)[C@H](Cc1ccccc1)NC(=O)[C@H](CC(N)=O)NC(=O)[C@@H]1CCCN1C(=O)[C@H](CO)NC(=O)[C@H](CO)NC(=O)[C@H](Cc1c[nH]cn1)NC(=O)[C@H](CCCNC(=N)N)NC(=O)[C@H](CC(C)C)NC(=O)[C@H](Cc1ccccc1)NC(=O)[C@H](CCC(=O)O)NC(=O)[C@H](C)NC(=O)[C@H](CC(C)C)NC(=O)[C@H](CCCNC(=N)N)NC(=O)[C@H](CCC(N)=O)NC(=O)[C@@H](NC(=O)[C@H](C)NC(=O)[C@@H]1CSSC[C@H](NC(=O)[C@@H](N)CCCCNC(=O)CC[C@H](NC(=O)CCCCCCCCCCCCCCCCCCC(=O)O)C(=O)O)C(=O)N[C@@H](CC(N)=O)C(=O)N[C@@H]([C@@H](C)O)C(=O)N[C@@H](C)C(=O)N[C@@H]([C@@H](C)O)C(=O)N1)[C@@H](C)O)C(=O)N1CCC[C@H]1C(=O)N[C@@H](CO)C(=O)N[C@@H](CO)C(=O)N[C@H](C(=O)N[C@@H](CC(N)=O)C(=O)N[C@H](C(=O)NCC(=O)N[C@@H](CCCNC(=N)N)C(=O)N[C@@H](CCC(=O)O)C(=O)N[C@H](C(=O)N[C@@H](Cc1ccc(O)cc1)C(N)=O)[C@@H](C)O)C(C)C)[C@@H](C)O
notes: synthetic peptide amide
B6: N^ε1-[(4S)-4-carboxy-4-(19-carboxynonadecanoylamino)butanoyl]-[Glu14,Arg17,Pro21,Pro27,His34,Glu35]-h-amylin (peptide)
peptide: K([γGlu-C20 diacid])CNTATCATQRLAEFLRHSSPNFGAIPSSTNVGHETY-NH2
modifications: disulfide 2-7; N-terminus assumed
SMILES: CC[C@H](C)[C@H](NC(=O)[C@H](C)NC(=O)CNC(=O)[C@H](Cc1ccccc1)NC(=O)[C@H](CC(N)=O)NC(=O)[C@@H]1CCCN1C(=O)[C@H](CO)NC(=O)[C@H](CO)NC(=O)[C@H](Cc1c[nH]cn1)NC(=O)[C@H](CCCNC(=N)N)NC(=O)[C@H](CC(C)C)NC(=O)[C@H](Cc1ccccc1)NC(=O)[C@H](CCC(=O)O)NC(=O)[C@H](C)NC(=O)[C@H](CC(C)C)NC(=O)[C@H](CCCNC(=N)N)NC(=O)[C@H](CCC(N)=O)NC(=O)[C@@H](NC(=O)[C@H](C)NC(=O)[C@@H]1CSSC[C@H](NC(=O)[C@@H](N)CCCCNC(=O)CC[C@H](NC(=O)CCCCCCCCCCCCCCCCCCC(=O)O)C(=O)O)C(=O)N[C@@H](CC(N)=O)C(=O)N[C@@H]([C@@H](C)O)C(=O)N[C@@H](C)C(=O)N[C@@H]([C@@H](C)O)C(=O)N1)[C@@H](C)O)C(=O)N1CCC[C@H]1C(=O)N[C@@H](CO)C(=O)N[C@@H](CO)C(=O)N[C@H](C(=O)N[C@@H](CC(N)=O)C(=O)N[C@H](C(=O)NCC(=O)N[C@@H](Cc1c[nH]cn1)C(=O)N[C@@H](CCC(=O)O)C(=O)N[C@H](C(=O)N[C@@H](Cc1ccc(O)cc1)C(N)=O)[C@@H](C)O)C(C)C)[C@@H](C)O
notes: synthetic peptide amide; also called compound 107

target: T1, human calcitonin receptor; assay: cell-based or functional assay

| Binder | hCTR funct. EC50 (pM) |
| --- | --- |
| B1 | 1090 pM |
| B2 | 2210 pM |
| B3 | 5850 pM |
| B4 | 3640 pM |
| B5 | 2740 pM |
| B6 | 2540 pM |

Source: US20140087995A1 (published 2014)
